Reference: paper PMC8881611, “A mechanism of origin licensing control through autoinhibition of S. cerevisiae ORC·DNA·Cdc6” (Nature Communications, 2022)

Tests used:
[1] = molecular target: T1, ScORC·DNA·Cdc6 with MBP-tagged ORC holding Orc6 ΔCBN/Δlinker (Orc6Δ1-269), ORC phosphorylated by CDK (S. cerevisiae, UniProt P54784 1-914; P32833 1-620; P54790 1-616; P54791 1-529; P50874 1-479; P38826 …, ORC treated with CDK; phosphorylated sites not given); assay: pull-down; amylose pulldown, ORC with MBP-tagged Orc4 as bait; 0.5 uM ScORC, 0.5 uM 84 bp ARS1 dsDNA, 1 uM ScCdc6, 10 uM ScMcm7 (titrations 1.5, 5, 10 uM), 2 mM ATPγS; 25 mM HEPES pH 7.5, 300 mM potassium acetate, 10 mM magnesium acetate, 1 mM DTT; on ice; maltose elution, Coomassie-stained SDS-PAGE; conditions: both partners purified
T1 construct: Orc1, S. cerevisiae, wild type; Orc2, S. cerevisiae, wild type; Orc3, S. cerevisiae, wild type; Orc4, S. cerevisiae, wild type; Orc5, S. cerevisiae, wild type; Orc6, S. cerevisiae, truncation Orc6Δ1-269 (lacks the N-terminal cyclin box fold and the flexible linker); Cdc6, S. cerevisiae, wild type; ORC phosphorylated by CDK before assembly with DNA, Cdc6 and ATPγS; also called Orc6 ΔCBN/Δlinker, …

[2] = molecular target: T2, ScORC·DNA·Cdc6 with MBP-tagged ORC holding Orc6 ΔCBN/Δlinker (Orc6Δ1-269), ORC untreated (S. cerevisiae, UniProt P54784 1-914; P32833 1-620; P54790 1-616; P54791 1-529; P50874 1-479; P38826 …); assay: as above; conditions: both partners purified
T2 construct: Orc1, S. cerevisiae, wild type; Orc2, S. cerevisiae, wild type; Orc3, S. cerevisiae, wild type; Orc4, S. cerevisiae, wild type; Orc5, S. cerevisiae, wild type; Orc6, S. cerevisiae, truncation Orc6Δ1-269 (lacks the N-terminal cyclin box fold and the flexible linker); Cdc6, S. cerevisiae, wild type; also called Orc6^ΔN269; source: MBP-ORC: High5 insect cells, purified (no TEV cleavage); Cdc6: …

binding result [1]: binds
binding result [2]: binds
B1: S. cerevisiae Mcm7 (ScMcm7) (natural protein, UniProt P38132 1-845, looked up)
chain: MSAALPSIQLPVDYNNLFNEITDFLVTFKQDTLSSDATRNENEDENLDAENIEQHLLEKGPKYMAMLQKVANRELNSVIIDLDDILQYQNEKFLQGTQADDLVSAIQQNANHFTELFCRAIDNNMPLPTKEIDYKDDVLDVILNQRRLRNERMLSDRTNEIRSENLMDTTMDPPSSMNDALREVVEDETELFPPNLTRRYFLYFKPLSQNCARRYRKKAISSKPLSVRQIKGDFLGQLITVRGIITRVSDVKPAVEVIAYTCDQCGYEVFQEVNSRTFTPLSECTSEECSQNQTKGQLFMSTRASKFSAFQECKIQELSQQVPVGHIPRSLNIHVNGTLVRSLSPGDIVDVTGIFLPAPYTGFKALKAGLLTETYLEAQFVRQHKKKFASFSLTSDVEERVMELITSGDVYNRLAKSIAPEIYGNLDVKKALLLLLVGGVDKRVGDGMKIRGDINVCLMGDPGVAKSQLLKAICKISPRGVYTTGKGSSGVGLTAAVMKDPVTDEMILEGGALVLADNGICCIDEFDKMDESDRTAIHEVMEQQTISISKAGINTTLNARTSILAAANPLYGRYNPRLSPLDNINLPAALLSRFDILFLMLDIPSRDDDEKLAEHVTYVHMHNKQPDLDFTPVEPSKMREYIAYAKTKRPVMSEAVNDYVVQAYIRLRQDSKREMDSKFSFGQATPRTLLGIIRLSQALAKLRLADMVDIDDVEEALRLVRVSKESLYQETNKSKEDESPTTKIFTIIKKMLQETGKNTLSYENIVKTVRLRGFTMLQLSNCIQEYSYLNVWHLINEGNTLKFVDDGTMDTDQEDSLVSTPKLAPQTTASANVSAQDSDIDLQDA
notes: Mcm7, S. cerevisiae; migrates as a doublet on SDS-PAGE; source: E. coli BL21 RIL, purified (HisTrap, amylose, TEV cleavage, HisTrap, gel filtration); not shown: His6, N-terminal, cleaved; MBP, N-terminal, cleaved
